Data taken from article PMC3173369, “Mitochondrial Inhibitory Factor 1 (IF1) Is Present in Human Serum and Is Positively Correlated with HDL-Cholesterol” (PLoS ONE, 2011).

Molecular target: the molecule itself
Experiment: SDS-PAGE and Western blot after immunoprecipitation; 2 µg purified rIF1 immunoprecipitated with anti-IF1 antibodies cross-linked on protein A/G resin, eluted in 0.2 M glycine pH 2.8, boiled in Laemmli buffer with SDS and DTT, 15% SDS-PAGE, blot with anti-IF1; bands at the size of monomer and dimer

B1: Recombinant human IF1 (mitochondrial Inhibitory Factor 1) (natural protein, UniProt Q9UII2-1 26-106, looked up)
chain: GSDQSENVDRGAGSIREAGGAFGKREQAEEERYFRAQSREQLAALKKHHEEEIVHHKKEIERLQKEIERHKQKIKMLKHDD
notes: mature peptide without the mitochondrial targeting signal, amplified from HeLa cell cDNA; Cloned at BamHI/HindIII into pBEn-SBP-SET1-Qa (Stratagene); also called rIF1; recombinant IF1
- stoichiometry N: 2
